“And” between values parts separate entries of the source, which are not always exact repeats. Equal values may be shown once.
B1: HSV1-pUL15 (residues 1–737), ATPase/terminase subunit of the herpesvirus terminase complex (natural protein)
chain: MFGQQLASDVQQYLERLEKQRQLKVGADEASAGLTMGGDALRVPFLDFATATPKRHQTVVPGVGTLHDCCEHSPLFSAVARRLLFNSLVPAQLKGRDFGGDHTAKLEFLAPELVRAVARLRFKECAPADVVPQRNAYYSVLNTFQALHRSEAFRQLVHFVRDFAQLLKTSFRASSLTETTGPPKKRAKVDVATHGRTYGTLELFQKMILMHATYFLAAVLLGDHAEQVNTFLRLVFEIPLFSDAAVRHFRQRATVFLVPRRHGKTWFLVPLIALSLASFRGIKIGYTAHIRKATEPVFEEIDACLRGWFGSARVDHVKGETISFSFPDGSRSTIVFASSHNTNGIRGQDFNLLFVDEANFIRPDAVQTIMGFLNQANCKIIFVSSTNTGKASTSFLYNLRGAADELLNVVTYICDDHMPRVVTHTNATACSCYILNKPVFITMDGAVRRTADLFLADSFMQEIIGGQARETGDDRPVLTKSAGERFLLYRPSTTTNSGLMAPDLYVYVDPAFTANTRASGTGVAVVGRYRDDYIIFALEHFFLRALTGSAPADIARCVVHSLTQVLALHPGAFRGVRVAVEGNSSQDSAVAIATHVHTEMHRLLASEGADAGSGPELLFYHCEPPGSAVLYPFFLLNKQKTPAFEHFIKKFNSGGVMASQEIVSATVRLQTDPVEYLLEQLNNLTETVSPNTDVRTYSGKRNGASDDLMVAVIMAIYLAAQAGPPHTFAPITRVS
notes: pUL15 of herpes simplex virus 1 (HSV1), tripartite terminase subunit 3; construct printed as residues 1–737, while the results say pUL15 is 735 residues in length (domains end at 735); Cloned in pFastBac-HTA; No tag cleavage is described; also called ATPase/terminase pUL15; source: Sf9, co-infected with two recombinant baculoviruses (co-expressed with pUL28 and pUL33), purified (Ni-NTA, Superose …)
B2: herpesvirus terminase complex (heterotrimer of pUL15, pUL28 and pUL33), wild type (complex)
chain 1: MFGQQLASDVQQYLERLEKQRQLKVGADEASAGLTMGGDALRVPFLDFATATPKRHQTVVPGVGTLHDCCEHSPLFSAVARRLLFNSLVPAQLKGRDFGGDHTAKLEFLAPELVRAVARLRFKECAPADVVPQRNAYYSVLNTFQALHRSEAFRQLVHFVRDFAQLLKTSFRASSLTETTGPPKKRAKVDVATHGRTYGTLELFQKMILMHATYFLAAVLLGDHAEQVNTFLRLVFEIPLFSDAAVRHFRQRATVFLVPRRHGKTWFLVPLIALSLASFRGIKIGYTAHIRKATEPVFEEIDACLRGWFGSARVDHVKGETISFSFPDGSRSTIVFASSHNTNGIRGQDFNLLFVDEANFIRPDAVQTIMGFLNQANCKIIFVSSTNTGKASTSFLYNLRGAADELLNVVTYICDDHMPRVVTHTNATACSCYILNKPVFITMDGAVRRTADLFLADSFMQEIIGGQARETGDDRPVLTKSAGERFLLYRPSTTTNSGLMAPDLYVYVDPAFTANTRASGTGVAVVGRYRDDYIIFALEHFFLRALTGSAPADIARCVVHSLTQVLALHPGAFRGVRVAVEGNSSQDSAVAIATHVHTEMHRLLASEGADAGSGPELLFYHCEPPGSAVLYPFFLLNKQKTPAFEHFIKKFNSGGVMASQEIVSATVRLQTDPVEYLLEQLNNLTETVSPNTDVRTYSGKRNGASDDLMVAVIMAIYLAAQAGPPHTFAPITRVS
chain 2: MAAPVSEPTVARQKLLALLGQVQTYVFQIELLRRCDPHIGRGKLPQLKLNALQVRALRRRLRPGLEAQAGAFLTPLSVTLELLLEYAWREGERLLGSLETFATAGDVAAFFTETMGLARPCPYHQRVRLDTYGGTVHMELCFLHDVENFLKQLNYCHLITPSRGATAALERVREFMVGAVGSGLIVPPELSDPSHPCAVCFEELCVTANQGATIARRLADRICNHVTQQAQVRLDANELRRYLPHAAGLSDADRARALSVLDHALARTAGGDGQPHPSPENDSVRKEADALLEAHDVFQATTPGLYAISELRFWLASGDRAGQTTMDAFASNLTALARRELQQETAAVAVELALFGRRAEHFDRAFGSHLAALDMVDALIIGGQATSPDDQIEALIRACYDHHLTTPLLRRLVSPEQCDEEALRRVLARMGAGGAADAPKGGAGPDDDGDRVAVEEGARGLGAPGGGGEDEDRRRGPGGQGPETWGDIATQAAADVRERRRLYADRLTKRSLASLGRCVREQRGELEKMLRVSVHGEVLPATFAAVANGFAARARFCALTAGAGTVIDNRSAPGVFDAHRFMRASLLRHQVDPALLPSITHRFFELVNGPLFDHSTHSFAQPPNTALYYSVENVGLLPHLKEELARFIMGAGGSGADWAVSEFQRFYCFDGISGITPTQRAAWRYIRELIIATTLFASVYRCGELELRRPDCSRPTSEGRYRYPPGVYLTYDSDCPLVAIVESAPDGCIGPRSVVVYDRDVFSILYSVLQHLAPRLPDGGHDGPP
chain 3: MAGREGRTRQRTLRDTIPDCALRSQTLESLDARYVSRDGAHDAAVWFEDMTPAELEVVFPTTDAKLNYLSRTQRLASLLTYAGPIKAPDDAAAPQTPDTACVHGELLAAKRERFAAVINRFLDLHQILRG
notes: pUL15 of herpes simplex virus 1 (HSV1); construct printed as residues 1–737, while the results say pUL15 is 735 residues in length; pUL28 of herpes simplex virus 1 (HSV1); construct printed as residues 1–787; pUL33 of herpes simplex virus 1 (HSV1); construct printed as residues 1–132; One heterotrimer is one subunit of the hexameric ring; the hexamer and dodecamer are written as self-association …

Legend:
[1] = biological target: the molecule itself; test: cryo-EM structure; purified terminase complex (1 mg/mL), apo or with ADP•BeF3 and pac2 DNA (58 bp; DNA not visible); hexameric and dodecameric assemblies, block-based reconstruction of one terminase complex
[2] = biological target: the molecule itself; test: AUC; sedimentation velocity, Beckman XL-I, 20 °C, 20 mmol/L Hepes, 300 mmol/L NaCl, pH 7.5, A280 ~0.8, 20,000 rpm; shown with SDS-PAGE and electron microscopy (Fig. 1B)

Protein	binding result [1]	stoichiometry N [2]
B1	binds	
B2		6 and 12

From publication PMC7196598, “Architecture of the herpesvirus genome-packaging complex and implications for DNA translocation” (Protein & Cell, 2020)
